The record followed here is paper PMC10359280, “A maize epimerase modulates cell wall synthesis and glycosylation during stomatal morphogenesis” (Nature Communications, 2023).

Data set [1] concerns the target BZU3 (maize UDP-glucose 4-epimerase), recombinant 6×His-BZU3 (maize). The data set is described as follows: crystal structure; BZU3 (~5.0 mg/ml) crystallised by sitting-drop vapor diffusion, 100 mM sodium malonate pH 5.0, 12~16% PEG3350; apo form and crystals soaked with 5 mM UDP-Glc or UDP-GlcNAc.
The target of data set [2] is T1, BZU3 (Zea mays, UniProt C0HI30).
T1 construct: gene ZEAMMB73_Zm00001d029151; residues 1-189 NAD domain, 190-355 sugar domain; homo-dimer
T1 sequence (C0HI30 1-355): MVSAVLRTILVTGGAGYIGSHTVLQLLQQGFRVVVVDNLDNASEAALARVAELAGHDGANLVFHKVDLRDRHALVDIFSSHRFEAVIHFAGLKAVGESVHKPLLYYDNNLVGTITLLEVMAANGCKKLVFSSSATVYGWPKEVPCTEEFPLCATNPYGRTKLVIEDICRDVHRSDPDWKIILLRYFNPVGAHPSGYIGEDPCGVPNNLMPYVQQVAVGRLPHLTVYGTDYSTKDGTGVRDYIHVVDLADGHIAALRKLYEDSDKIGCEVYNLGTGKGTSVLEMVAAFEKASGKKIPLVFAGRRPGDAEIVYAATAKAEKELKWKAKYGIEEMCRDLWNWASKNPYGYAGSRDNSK
The data set can be described thus: X-ray crystal structure, […] Å, soaked with […] ligand. The note with it: ternary complex with NAD+, crystals at pH 5.0. The data set is classed as binding.

Data set [3] addresses T1, BZU3. The data set can be described thus: X-ray crystal structure. Particulars: no ligand soak for 7XPP; with UDP-Glc 7XPO; with UDP-GlcNAc 7XPQ. The data set is classed as binding.
Substrate in data set [4]: O=c1ccn([C@@H]2O[C@H](CO[P@@](=O)(O)O[P@@](=O)(O)O[C@H]3O[C@H](CO)[C@@H](O)[C@H](O)[C@H]3O)[C@@H](O)[C@H]2O)c(=O)[nH]1
The data set is described as follows: HPLC of UDP-Glc/UDP-Gal, Michaelis-Menten. The data set is classed as biochemical, Zea mays. The note with it: 10 mM Tris-HCl pH 8.0, 30 °C, 25 nM enzyme, 1 min.

Substrate in data set [5]: O=c1ccn([C@@H]2O[C@H](COP(=O)(O)OP(=O)(O)O[C@H]3O[C@H](CO)[C@H](O)[C@H](O)[C@H]3O)[C@@H](O)[C@H]2O)c(=O)[nH]1
The data set is described as follows: HPLC of UDP-Glc/UDP-Gal, Michaelis-Menten. It is filed as biochemical, Zea mays. Particulars: 10 mM Tris-HCl pH 8.0, 30 °C, 25 nM enzyme, 1 min.

Substrate in data set [6]: CC(=O)N[C@H]1[C@@H](OP(=O)(O)OP(=O)(O)OC[C@H]2O[C@@H](n3ccc(=O)[nH]c3=O)[C@H](O)[C@@H]2O)O[C@H](CO)[C@H](O)[C@@H]1O
The data set can be described thus: HPLC of UDP-GlcNAc/UDP-GalNAc, Michaelis-Menten. It is filed as biochemical, Zea mays. Particulars: similar protocol (10 mM Tris-HCl pH 8.0, 30 °C).

Substrate in data set [7]: CC(=O)N[C@H]1[C@@H](OP(=O)(O)OP(=O)(O)OC[C@H]2O[C@@H](n3ccc(=O)[nH]c3=O)[C@H](O)[C@@H]2O)O[C@H](CO)[C@@H](O)[C@@H]1O
The data set can be described thus: HPLC of UDP-GlcNAc/UDP-GalNAc, Michaelis-Menten. The data set is classed as biochemical, Zea mays. The note with it: similar protocol (10 mM Tris-HCl pH 8.0, 30 °C).

For orientation: stoichiometry N means a count of units in the complex or per binding partner. Turning to “BZU3 (maize UDP-glucose 4-epimerase), recombinant 6×His-BZU3 (enzyme)”, the stoichiometry N in data set [1] was 2.

`CC(=O)N[C@H]1[C@@H](OP(=O)(O)OP(=O)(O)OC[C@H]2O[C@@H](n3ccc(=O)[nH]c3=O)[C@H](O)[C@@H]2O)O[C@H](CO)[C@@H](O)[C@@H]1O` [UDP-GlcNAc]: in data set [2], the “X-ray crystal structure, 2.15 Å, soaked with 5 mM ligand” value is reported as “The structure of BZU3 in complex with NAD^+/UDP-GlcNAc was similar to that of BZU3/NAD^+/UDP-Glc”.

Regarding `NC(=O)c1ccc[n+]([C@@H]2O[C@H](COP(=O)(O)OP(=O)(O)OC[C@H]3O[C@@H](n4cnc5c(N)ncnc54)[C@H](O)[C@@H]3O)[C@@H](O)[C@H]2O)c1` [NAD^+], the X-ray crystal structure result in data set [3] is “both Y157 and K161 directly interact with the ribose moiety of NAD^+”.

B1: BZU3 (Zea mays) (protein)
chain: MVSAVLRTILVTGGAGYIGSHTVLQLLQQGFRVVVVDNLDNASEAALARVAELAGHDGANLVFHKVDLRDRHALVDIFSSHRFEAVIHFAGLKAVGESVHKPLLYYDNNLVGTITLLEVMAANGCKKLVFSSSATVYGWPKEVPCTEEFPLCATNPYGRTKLVIEDICRDVHRSDPDWKIILLRYFNPVGAHPSGYIGEDPCGVPNNLMPYVQQVAVGRLPHLTVYGTDYSTKDGTGVRDYIHVVDLADGHIAALRKLYEDSDKIGCEVYNLGTGKGTSVLEMVAAFEKASGKKIPLVFAGRRPGDAEIVYAATAKAEKELKWKAKYGIEEMCRDLWNWASKNPYGYAGSRDNSK
notes: residues 1-189 NAD domain, 190-355 sugar domain; homo-dimer
By Km is commonly meant the substrate concentration at which the rate is half of its maximum. As for B1, the Km was determined as 2670 µM in data set [4], 1450 µM in data set [5], 500 µM in data set [6] and 400 µM in data set [7].
